Biological target: Hsp90 600-709 (Saccharomyces cerevisiae (strain ATCC …, UniProt P02829))
Assay: Kd quoted from earlier work (method not stated here)

B1: AIP 172-315 (protein)
chain: DEEKAKAVPLIHQEGNRLYREGHVKEAAAKYYDAIACLKNLQMKEQPGSPEWIQLDQQITPLLLNYCQCKLVVEEYYEVLDHCSSILNKYDDNVKAYFKRGKAHAAVWNAQEAQADFAKVLELDPALAPVVSRELRALEARIRQ
Q: How did the Kd turn out when B1 was run?
A: Its Kd is 13.3 µM.

Source: PMC4427203 (2015)
